According to PMC9637899:
Values joined by “and” are separate entries in the source; they are usually repeats but may differ in a detail not shown here. Equal entries are not always repeated.

Assays:
[1] = target: ElpB_(182–378) (B. burgdorferi) (UniProt H7C7R2); test: SPR; Elp truncation amine-coupled to a CMD200 chip; multicycle twofold injection series of C1s enzyme or activated C1s–CCP1–CCP2–SP constructs from 200 nM; HBS-T Ca2+ (10 mM Hepes pH 7.3, 140 mM NaCl, 0.005% Tween-20, 5 mM CaCl2), 30 ul/min; K_(D, kin) from a kinetic and K_(D, ss) from a steady-state 1:1 (Langmuir) fit; triplicate
[2] = target: ElpQ_(181–343) (B. burgdorferi); test: as above
[3] = target: activated C1s–CCP1–CCP2–SP (human) (UniProt P09871)
activated C1s–CCP1–CCP2–SP (human), sequence (P09871 292-688): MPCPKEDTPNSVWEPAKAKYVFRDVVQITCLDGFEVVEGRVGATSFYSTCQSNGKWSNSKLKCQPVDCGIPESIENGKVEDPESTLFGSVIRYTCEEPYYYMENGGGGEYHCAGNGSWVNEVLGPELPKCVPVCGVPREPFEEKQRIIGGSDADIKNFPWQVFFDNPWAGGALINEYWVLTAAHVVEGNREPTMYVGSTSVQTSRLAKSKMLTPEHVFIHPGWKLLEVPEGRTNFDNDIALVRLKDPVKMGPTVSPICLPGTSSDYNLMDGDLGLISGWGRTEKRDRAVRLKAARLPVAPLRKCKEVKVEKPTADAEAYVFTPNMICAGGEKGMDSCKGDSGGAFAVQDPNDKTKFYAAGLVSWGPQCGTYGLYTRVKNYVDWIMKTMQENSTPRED

[4] = target: activated c-Myc-C1s–CCP1–CCP2–SP_(S632A) (human) (UniProt P09871); test: AlphaScreen or HTRF; competition: 50 nM GST-ElpQ on glutathione donor beads and 500 nM activated c-Myc-C1s–CCP1–CCP2–SP_(S632A) on anti-c-Myc acceptor beads, 12-point twofold dilution of untagged competitor; HBS-T Ca2+, 1 h at room temperature; IC50 taken to approximate KD (Cheng–Prusoff)
activated c-Myc-C1s–CCP1–CCP2–SP_(S632A) (human), sequence (P09871 16-688 S632A): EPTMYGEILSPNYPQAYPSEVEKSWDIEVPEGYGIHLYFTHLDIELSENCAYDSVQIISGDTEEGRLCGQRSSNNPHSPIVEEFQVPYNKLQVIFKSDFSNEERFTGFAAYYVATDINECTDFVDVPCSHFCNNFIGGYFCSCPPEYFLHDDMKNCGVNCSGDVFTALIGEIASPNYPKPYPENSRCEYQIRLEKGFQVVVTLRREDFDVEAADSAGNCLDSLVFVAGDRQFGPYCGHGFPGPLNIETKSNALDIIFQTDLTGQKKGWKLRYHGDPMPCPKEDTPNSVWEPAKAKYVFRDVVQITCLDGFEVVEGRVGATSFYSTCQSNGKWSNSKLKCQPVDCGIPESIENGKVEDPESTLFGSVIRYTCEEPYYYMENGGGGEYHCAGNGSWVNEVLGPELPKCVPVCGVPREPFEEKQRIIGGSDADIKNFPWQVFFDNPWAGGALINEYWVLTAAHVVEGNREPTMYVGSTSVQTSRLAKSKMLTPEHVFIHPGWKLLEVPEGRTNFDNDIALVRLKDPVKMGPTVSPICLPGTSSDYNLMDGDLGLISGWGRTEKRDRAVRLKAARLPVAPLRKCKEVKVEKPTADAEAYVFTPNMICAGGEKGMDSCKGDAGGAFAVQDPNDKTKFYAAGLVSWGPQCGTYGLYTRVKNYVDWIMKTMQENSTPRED

[5] = target: ElpB_(111–378) (B. burgdorferi); test: SPR; Elp truncation amine-coupled to a CMD200 chip; multicycle twofold injection series of C1s enzyme or activated C1s–CCP1–CCP2–SP constructs from 200 nM; HBS-T Ca2+ (10 mM Hepes pH 7.3, 140 mM NaCl, 0.005% Tween-20, 5 mM CaCl2), 30 ul/min; K_(D, kin) from a kinetic and K_(D, ss) from a steady-state 1:1 (Langmuir) fit; triplicate

Substance “C1s CCP1–CCP2–SP CCPE (from UniProt P09871) (domain or fragment)” has a Kd [1] of 570 nM and a Kd [2] of 370 nM.
For ElpQ_(181–343) (domain or fragment), the IC50 of inhibition of C4 cleavage by 6.25 nM activated C1s–CCP1–CCP2–SP, SDS-PAGE densitometry, ElpQ (181–343) 25 to 0.20 uM; blocks m9 with m17 [3] was 3600 nM and the Kd [4] was 110 nM.
“complement component C4 (natural protein)” showed a Kd [4] of 740 nM.
ElpQ_(19–343) (natural protein) showed a Kd [4] of 190 nM.
Substance “ElpB_(182–378) (from UniProt H7C7R2 182-378) (domain or fragment)” has a Kd [4] of 45 nM.
Work on “activated C1s–CCP1–CCP2–SP (from UniProt P09871 292-688) (domain or fragment)” yielded a Kd [2] of 210 nM.
“purified full-length activated C1s enzyme” was tested, and the Kd [1] was 47 nM and 85 nM, the Kd [2] was 17 nM and 31 nM and the Kd [5] was 21 nM and 35 nM.
